Data on 54 molecules can be found in article PMC314469, “Protein Interaction Networks by Proteome Peptide Scanning” (PLoS Biology, 2004).

T1: Myo5 SH3 (MYO5_YEAST), Q04439
T1 chain: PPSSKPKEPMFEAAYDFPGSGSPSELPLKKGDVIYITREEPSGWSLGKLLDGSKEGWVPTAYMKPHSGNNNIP

For the experiment, the target named is T1, Myo5 SH3 (MYO5_YEAST), Q04439. Description: SPOT array.
Molecule GLLTYKGPKVPYQK [YHR028C 497-510] yielded a normalised SPOT signal, Boehringer light units (BLU); mean over the file's lines of this peptide of 150. For HFYEYVYPSLPFIE [YAL051W 349-362] the value was 152; for HLDSFSPPFSPSTT [YPL230W 298-311], 121. For GWPVYNYPMQPTTE [YER109C 286-299] the value was 168; for GEYDLIMPIYPYRL [YIL173W 521-534], 242. As to FLTVYILPKNPFRV [YGR293C 121-134], the normalised SPOT signal, Boehringer light units (BLU); mean over the file's lines of this peptide stood at 1470. For HEKLYHNPSLPAQS [YKL217W 53-66] the value was 78.1; for GLHDYTSPASPKQT [YOR267C 107-120], 130; for GLDALNIPHKPKQL [YHR033W 57-70], 167.

GFVFFIAPHLPVDL [YER003C 399-412]: the normalised SPOT signal, Boehringer light units (BLU); mean over the file's lines of this peptide amounted to 508. For GETQWRIPYLPLDP [YNL104C 387-400] the value was 106. For GPEFWISPDTPLKF [YJL093C 632-645] the value was 87.4; for HFLSLDPPIDPNNL [YMR075W 283-296], 122. For HFNDLQSPAQPQQS [YMR164C 264-277] the value was 92.5.

The molecule GWSTYIPPFNPLEI [YNL088W 836-849] displayed a normalised SPOT signal, Boehringer light units (BLU); mean over the file's lines of this peptide of 114.

The molecule FLSYMSEPKYPSNE [YJL029C 360-373] displayed a normalised SPOT signal, Boehringer light units (BLU); mean over the file's lines of this peptide of 142. For GLLLLFVPDSPYDP [YLR106C 2903-2916] the value was 21.6; for HEYNLALPKFPILF [YMR088C 27-40], 147; for GLIAHQGPQFPVMG [YKL204W 458-471], 238. For GFDGYMQPIIPGKT [YDR390C 147-160] the value was 158; for GETRWRIPYLPLDP [YOR108W 386-399], 118; for GPLLLTVPELPEAD [YLR338W 178-191], 162.

Molecule HATLYWAPVSPLKS [YLR305C 1420-1433] registered a normalised SPOT signal, Boehringer light units (BLU); mean over the file's lines of this peptide of 151. For GEIMFPAPPLPIAN [YDL172C 53-66] the value was 2770. For GWVVYPPPPKPSYN [YML035C 223-236] the value was 453; for GLIGMNDPPRPNVK [YGL167C 574-587], 116. For GEFFHSSPNIPHYA [YLR244C 297-310] the value was 271; for FPFYLSFPFSPSFP [YLR198C 23-36], 760; for GLRELFLPGMPGLM [YPL249C 557-570], 160. Molecule GLRWYRSPIYPYLY [YEL050C 102-115] came in with a normalised SPOT signal, Boehringer light units (BLU); mean over the file's lines of this peptide of 468. For FLSRYPVPDLPIYL [YDR422C 770-783] the value was 1340; for FLRTMAQPTDPKDQ [YER171W 720-733], 257; for HAVLLNPPVAPTAE [YPL012W 184-197], 228. For HLARYIFPPNPVFH [YBR007C 426-439] the value was 279. For FLYPYDDPNAPIDE [YCR079W 210-223] the value was 55.4; for FLALFSDPARPFLT [YHL005C 61-74], 452; for HAWDMRSPHRPFYS [YDR128W 140-153], 822. For the molecule HFLAYTNPRAPGKL [YIL054W 29-42], the normalised SPOT signal, Boehringer light units (BLU); mean over the file's lines of this peptide turned out to be 112. With FWKIHLSPPLPSFK [YGR018C 23-36], the normalised SPOT signal, Boehringer light units (BLU); mean over the file's lines of this peptide was found to be 966. For GAGGLGSPALPYLA [YHR111W 74-87] the value was 111; for GWEPFSLPKDPKVV [YML018C 282-295], 75.9; for FPKKMGPPQWPFST [YHR199C 84-97], 279. For GAPPLPVPNGPAVG [YPL190C 573-586] the value was 222; for HAEAFEDPSIPRIS [YGL195W 985-998], 325; for HLFHLTTPQDPRLL [YKL191W 249-262], 246. Take GPSQFAPPPPPPGV [YCR077C 189-202]: the normalised SPOT signal, Boehringer light units (BLU); mean over the file's lines of this peptide was found to be 20400. For GARFLPAPHRPEKY [YGR154C 63-76] the value was 153; for GPIIHPGPEPPRYD [YPR030W 1104-1117], 205; for FLPVFNLPSNPALF [YKL083W 42-55], 154.

GESHYKPPSTPKIN [YFL034W 1020-1033] registered a normalised SPOT signal, Boehringer light units (BLU); mean over the file's lines of this peptide of 722. For HEHNYAIPYTPATF [YBR238C 43-56] the value was 129. For HLTDLSPPGTPPTM [YMR165C 272-285] the value was 261; for FFTIWFIPLVPVFW [YBL029C-A 44-57], 397. For HLVVWNPPILPQHE [YDR291W 495-508] the value was 118.
